Tests used:
[1] = molecular target: T1, L-type Ca^2+ channel β2 subunit (Homo sapiens, UniProt Q08289); test: Binding competition assay of variant peptides for the β2 subunit (AID-coated beads, heart lysate, SDS-PAGE); details: competition with bead-bound AID peptide, whole heart lysate, immunoblot densitometry; FIG. 2
T1 construct: from tissue; host or cells: whole heart (cardiac) lysate
Protocol: The affinity of each of the variant peptides to the β2 subunit was investigated through binding competition assays.
PureProteome™ NHS FlexiBind Magnetic Beads (Cat. #LSKMAGN04, Merck) were used following manufacturer recommendations. Aminohexanoic acid linked AID peptide was bound to the NHS flexibind magnetic beads at a concentration of more than 2 mg/mL to obtain saturation of the beads with peptide. Beads were first primed with an equilibration buffer (1 mM HCL) to prepare them for binding. The Ahx-AID peptide was dissolved in wash/coupling buffer (PBS, pH 7.4) and added to the beads. The beads-AID peptide mixture was left to mix uniformly on a multiplate shaker at a speed of 300 rpm at room temperature for 2 hours. To reduce non-specific binding the beads were incubated in Quench Buffer (100 mM Tris-HCl, 150 mM NaCl, pH 8.0) at room temperature for 1 hour.
The AID-peptide bound beads were split into 5 aliquots for the 5 samples prepared in Table 5. The whole heart lysate added to each of the peptide-bound beads to allow competitive binding for 2 hours at room temperature.
Upon completion, the conjugate was washed in coupling buffer, to remove unbound fraction. SDS sample buffer was added to the beads, with the tubes then heated for 5 minutes at 95° C. The eluted sample stored at −20° C. to be run through sodium dodecyl sulfate-polyacrymalide gel electrophoresis (SDS-PAGE) to determine the binding affinity of each of the variants.
The use of streptavidin dynabeads and biotinylated peptide was developed to improve the binding affinity assays. The peptide was initially biotinylated using EZ-link amine-PEG11-biotin (Spacer arm: 53.2 Å, Thermofisher Scientific, Cat. #26136) which was dissolved in 0.1M MES buffer ((2-N-morpholino)-ethanesulfonic acid) at a concentration of 1 mM. Just prior to the reaction, 0.1M EDC (N-(3-Dimethylaminopropyl)-N′-ethylcarbodiimide hydrochloride) was dissolved in MES buffer. In order to achieve complete biotinylation of the AID peptide, a 50× molar excess of biotin to peptide was required, with the total volumes of each component required shown in Table 6.
Each 78 μL aliquot of the biotinylated peptide shown in […] was enough for 6 reactions, covering the range of concentrations in which the heart lysate was again prepared with varying concentrations of the variant AID peptides according to Table 7.
The 78 μL aliquot of biotinylated AID-peptide was mixed with streptavidin dynabeads (1 mg Dynabeads per every 200 pmol biotinylated peptide) for half an hour at room temperature. The heart lysate ([…]) was incubated with the variant peptides at room temperature for 2 hours. After removing all unbound peptide from the beads, they were mixed with the pre-bound heart lysate for 2 hours at room temperature. The unbound fraction was removed. […]

Cavβ2 subunit = molecular target: T2, Cavβ2 subunit (Homo sapiens, UniProt Q08289); test: Competitive binding affinity assay, biotinylated AID affinity beads vs Cavβ2 subunit (Example 9); details: dose-response 0, 10 nM to 100 μM peptide; FIG. 9
T2 construct: incubated with 100 μg of Cavβ2 subunit from cardiac homogenate and cytoplasmic protein preparation; from tissue; host or cells: cardiac homogenate and cytoplasmic protein preparation
T2 sequence (Q08289 whole entry): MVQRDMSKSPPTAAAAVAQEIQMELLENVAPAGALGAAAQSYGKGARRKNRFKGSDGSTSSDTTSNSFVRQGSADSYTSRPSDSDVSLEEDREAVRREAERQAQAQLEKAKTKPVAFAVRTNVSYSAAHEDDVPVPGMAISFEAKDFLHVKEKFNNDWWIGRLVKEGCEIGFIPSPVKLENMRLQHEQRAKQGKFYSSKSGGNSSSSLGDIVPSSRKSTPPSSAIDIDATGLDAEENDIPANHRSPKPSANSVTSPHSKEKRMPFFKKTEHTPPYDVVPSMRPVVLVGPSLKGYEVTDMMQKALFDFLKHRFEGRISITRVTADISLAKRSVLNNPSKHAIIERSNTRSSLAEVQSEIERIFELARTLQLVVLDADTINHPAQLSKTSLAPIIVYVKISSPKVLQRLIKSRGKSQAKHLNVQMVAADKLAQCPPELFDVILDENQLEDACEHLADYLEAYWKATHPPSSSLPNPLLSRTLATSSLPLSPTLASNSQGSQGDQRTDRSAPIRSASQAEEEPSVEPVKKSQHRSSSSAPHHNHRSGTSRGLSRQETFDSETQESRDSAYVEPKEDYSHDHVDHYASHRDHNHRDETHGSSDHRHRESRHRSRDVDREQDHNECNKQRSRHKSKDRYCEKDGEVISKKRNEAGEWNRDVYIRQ
Protocol: In this experiment, a binding affinity assay was utilized to examine the binding efficacy of AID peptide variants presented in Table 8, compared to the original AID peptide.
Biotinylation of original AID (no TAT): For each reaction (a dose-response curve consisted of 6 reactions), 0.02 nM […] was incubated in biotinylation solution (0.1M MES buffer containing 1 nM amine-PEG11-biotin and 0.2 nM EDC) for 2 hrs at room temperature with agitation (400 rpm). Affinity beads (Dynabeads M-280 Streptavidin, ThermoFisher Scientific) were then incubated with biotinylated AID peptide for 30 min at room temperature with agitation (400 rpm). Afterwards, biotinylated AID-coated affinity beads were washed, initially in 0.1% BSA in PBS and then three times in PBS for 3 min.
Biochem J. 2000; 348 Pt 3:657-65; Haase H, Striessnig J, Holtzhauer M, Vetter R, Glossmann H. A rapid procedure for the purification of cardiac 1,4-dihydropyridine receptors from porcine heart. Eur J Pharmacol. 1991; 207(1):51-9).
Competitive binding of AID-affinity beads and Cavβ2 subunit: Cavβ2-AID mutant peptide dilutions were then incubated with biotinylated AID-coated affinity beads for 2 hrs at room temperature with gentle agitation (400 rpm). Samples were placed on a magnetic stand to allow affinity beads to migrate to the magnet. Supernatant was removed and treated with 1× sample buffer (62.5 mM Tris-HCl, pH 6.8, 2% SDS, 10% glycerol, 100 mM DTT, 0.002% Bromophenol Blue) for 5 min at 95° C. Resulting protein was analysed by immunoblot.

[2] = test system: myocytes isolated from cTnI-G203S mutant mouse hearts; test: Mitochondrial flavoprotein oxidation after BayK(−), myocytes from HCM hearts (Example 6); assay type: cell-based; details: FIG. 5
Protocol: FIG. 5 presents the effect of mutant peptides on flavoprotein oxidation, a measure of metabolic activity and oxygen consumption in myocytes isolated from cTnI-G203S mutant mouse hearts that are hypertrophic.
All in vitro studies were performed in freshly isolated myocytes at 37° C. […] Following a 20 min incubation with 0.5-1 μM AID(S)-TAT, AID-TAT, peptide 6 or peptide 7, fluorescent signal of individual myocytes was quantified using Metamorph 6.3 to measure signal intensity of manually traced cell regions. An equivalent region not containing cells was used for background and was subtracted.
Autofluorescence was used to measure flavoprotein oxidation in cardiac myocytes based on previously described methods (480 nm ex, 535 nm em). Fluorescent images were taken at 1 min intervals with 1 s exposure before and after exposure to L-type Ca2+ channel agonist BayK(−). Fluorescence was reported as a percentage from the baseline pre-treatment average.

cTnI.2 wt myocytes = test: Flavoprotein oxidation response to BayK(−), wt myocytes (Example 10); assay type: cell-based, mouse; details: 0.5 μM peptide 20 min, 10 μM BayK(−), FIG. 10B
Protocol: In this experiment wt myocytes were pre-exposed to 0.1, 0.5 or 1 μM for 20 min and assessed changes in flavoprotein oxidation and ψm.
Measurement of mitochondrial flavoprotein oxidation: Flavoprotein autofluorescence was used to measure flavoprotein oxidation based on previously described methods (Yaniv Y, Juhaszova M, Lyashkov A E, Spurgeon H A, Sollott S J, Lakatta E G. Ca2+-regulated-cAMP/PKA signaling in cardiac pacemaker cells links ATP supply to demand. J Mol Cell Cardiol. 2011; 51(5):740-8). […] Fluorescent images were acquired at 1 min intervals with 200 ms exposure. Metamorph 6.3 (Version 7.10.3) was used to quantify the signal by manually tracing myocytes. An equivalent region not containing cells was used as background and was subtracted. Fluorescence values recorded over 5 min before and 5 min after addition of drugs were averaged and alterations in fluorescent ratios reported as the percentage increase from the basal average. FCCP (50 μM) and NaCN (40 mM) was added at the end of each experiment to achieve a respective maximal and minimal fluorescence value indicative of maximal and minimal flavoprotein oxidation.
The ICA-L agonist BayK(−) was used to activate the channel and assess mitochondrial function. […] FIG. 10 presents the mean+/−SEM of flavoprotein fluorescence from cTnI.2 wt and cTnI-G2035 mutant myocytes before and after exposure to 10 μM BayK(−) in the presence of 1 μM AID(S)-TAT, and increasing concentrations of variant peptides as indicated. N=no. of animals, n=no. of cardiomyocytes. P values shown compared with AID(S)-TAT as determined by the Kruskal-Wallis test.

T1 sequence (Q08289 whole entry): as above

Row | Sequence | binding affinity (K0.5) for the target β2 subunit versus the original AID peptide [1] | K0.5 values compared to AID peptide (Cavβ2 subunit) | flavoprotein oxidation in comparison with AID-TAT peptide [2] | BayK(−) induced increase in flavoprotein oxidation (cTnI.2 wt myocytes)
1 | QQEEEDLKGYLDWITQAE (Varian P14) [Variant P14] | greater binding affinity (lower K0.5) | decreased K0.5 values | statistically significant reduction in flavoprotein oxidation in comparison with AID-TAT peptide | effective
2 | QQREEDLKGYLDWITQAE (Variant P16) | greater binding affinity (lower K0.5) | decreased K0.5 values | – | –
3 | QQEEEDEKGYLDWITQAE (Variant P15) | greater binding affinity (lower K0.5) | decreased K0.5 values | statistically significant reduction in flavoprotein oxidation in comparison with AID-TAT peptide | effective
